From the supplement of paper PMC10567573

B1: KLHDC10 (parent)
chain: FGGTGIPFGESNGNGVHVCNVKYK
B2: STK38L (parent)
chain: FLPGGDMMTLLMKKDTLTEEETQF

Variants of: B1
Test: protein stability index of a GFP-peptide fusion (GPS, HEK-293T) (PSI 1-6); higher = more stable
Conditions: c terminus: a fixed tail appended
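Note: lentivirally expressed fusions sorted by FACS into six bins by GFP to DsRed ratio, PSI derived from sequencing read proportions per bin multiplied by bin number.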

Variant	protein stability index
FGGDGIPFGESNGNGVHVCNVKYK	2.52
FGGKGIPFGESNGNGVHVCNVKYK	1.72
FGGNGIPFGESNGNGVHVCNVKYK	1.98
FGGMGIPFGESNGNGVHVCNVKYK	1.65
FGGCGIPFGESNGNGVHVCNVKYK	1.94
FGGLGIPFGESNGNGVHVCNVKYK	1.82
FGGGGIPFGESNGNGVHVCNVKYK	2.03
FGGHGIPFGESNGNGVHVCNVKYK	1.9
FGGWGIPFGESNGNGVHVCNVKYK	2.52
FGGEGIPFGESNGNGVHVCNVKYK	2.68
FGGAGIPFGESNGNGVHVCNVKYK	2.02
FGGYGIPFGESNGNGVHVCNVKYK	1.68
FGGVGIPFGESNGNGVHVCNVKYK	2.5
FGGSGIPFGESNGNGVHVCNVKYK	1.82
FGGIGIPFGESNGNGVHVCNVKYK	3.13
FGGRGIPFGESNGNGVHVCNVKYK	1.93
FGGQGIPFGESNGNGVHVCNVKYK	1.6
FGGFGIPFGESNGNGVHVCNVKYK	2.08
FGGPGIPFGESNGNGVHVCNVKYK	2.91
FGITGIPFGESNGNGVHVCNVKYK	2.13
FGETGIPFGESNGNGVHVCNVKYK	3.3
FGMTGIPFGESNGNGVHVCNVKYK	2.29
FGYTGIPFGESNGNGVHVCNVKYK	1.95
FGVTGIPFGESNGNGVHVCNVKYK	2.98
FGNTGIPFGESNGNGVHVCNVKYK	2.35

Variant	protein stability index
FGATGIPFGESNGNGVHVCNVKYK	2.52
FGRTGIPFGESNGNGVHVCNVKYK	2.77
FGWTGIPFGESNGNGVHVCNVKYK	1.42
FGDTGIPFGESNGNGVHVCNVKYK	2.38
FGQTGIPFGESNGNGVHVCNVKYK	2.88
FGHTGIPFGESNGNGVHVCNVKYK	2.54
FGKTGIPFGESNGNGVHVCNVKYK	2.32
FGSTGIPFGESNGNGVHVCNVKYK	2.61
FGTTGIPFGESNGNGVHVCNVKYK	2.81
FGFTGIPFGESNGNGVHVCNVKYK	2.66
FGCTGIPFGESNGNGVHVCNVKYK	3.1
FGPTGIPFGESNGNGVHVCNVKYK	2.78
FGLTGIPFGESNGNGVHVCNVKYK	2.63
FGGTQIPFGESNGNGVHVCNVKYK	2.42
FGGTNIPFGESNGNGVHVCNVKYK	2.87
FGGTPIPFGESNGNGVHVCNVKYK	1.86
FGGTAIPFGESNGNGVHVCNVKYK	2.07
FGGTKIPFGESNGNGVHVCNVKYK	1.52
FGGTFIPFGESNGNGVHVCNVKYK	1.92
FGGTRIPFGESNGNGVHVCNVKYK	2
FGGTTIPFGESNGNGVHVCNVKYK	2.18
FGGTDIPFGESNGNGVHVCNVKYK	2.95
FGGTVIPFGESNGNGVHVCNVKYK	1.9
FGGTEIPFGESNGNGVHVCNVKYK	3.42
FGGTCIPFGESNGNGVHVCNVKYK	1.71

Variant	protein stability index
FGGTHIPFGESNGNGVHVCNVKYK	1.92
FGGTLIPFGESNGNGVHVCNVKYK	1.89
FGGTIIPFGESNGNGVHVCNVKYK	3.13
FGGTYIPFGESNGNGVHVCNVKYK	1.34
FGGTMIPFGESNGNGVHVCNVKYK	2.47
FGGTWIPFGESNGNGVHVCNVKYK	2.69
FGGTSIPFGESNGNGVHVCNVKYK	2.39
FEGTGIPFGESNGNGVHVCNVKYK	3.9
FPGTGIPFGESNGNGVHVCNVKYK	1.83
FIGTGIPFGESNGNGVHVCNVKYK	2.14
FNGTGIPFGESNGNGVHVCNVKYK	2.16
FSGTGIPFGESNGNGVHVCNVKYK	2.11
FWGTGIPFGESNGNGVHVCNVKYK	2.2
FHGTGIPFGESNGNGVHVCNVKYK	2.58
FQGTGIPFGESNGNGVHVCNVKYK	2.02
FKGTGIPFGESNGNGVHVCNVKYK	3.55
FDGTGIPFGESNGNGVHVCNVKYK	3.46
FFGTGIPFGESNGNGVHVCNVKYK	2.72
FTGTGIPFGESNGNGVHVCNVKYK	1.97
FMGTGIPFGESNGNGVHVCNVKYK	2.7
FYGTGIPFGESNGNGVHVCNVKYK	2.55
FAGTGIPFGESNGNGVHVCNVKYK	2.2
FRGTGIPFGESNGNGVHVCNVKYK	3.08
FLGTGIPFGESNGNGVHVCNVKYK	2.19
FVGTGIPFGESNGNGVHVCNVKYK	1.92

Variant	protein stability index
FCGTGIPFGESNGNGVHVCNVKYK	2.41
TGGTGIPFGESNGNGVHVCNVKYK	3.98
YGGTGIPFGESNGNGVHVCNVKYK	2.23
RGGTGIPFGESNGNGVHVCNVKYK	3.54
IGGTGIPFGESNGNGVHVCNVKYK	3.5
LGGTGIPFGESNGNGVHVCNVKYK	4.04
HGGTGIPFGESNGNGVHVCNVKYK	3.93
CGGTGIPFGESNGNGVHVCNVKYK	3.03
MGGTGIPFGESNGNGVHVCNVKYK	4.04
DGGTGIPFGESNGNGVHVCNVKYK	4.58
NGGTGIPFGESNGNGVHVCNVKYK	4.34
WGGTGIPFGESNGNGVHVCNVKYK	2.73
QGGTGIPFGESNGNGVHVCNVKYK	4.24
EGGTGIPFGESNGNGVHVCNVKYK	3.67
GGGTGIPFGESNGNGVHVCNVKYK	4.3
SGGTGIPFGESNGNGVHVCNVKYK	4.25
PGGTGIPFGESNGNGVHVCNVKYK	3.9
KGGTGIPFGESNGNGVHVCNVKYK	3.71
AGGTGIPFGESNGNGVHVCNVKYK	4.18
VGGTGIPFGESNGNGVHVCNVKYK	3.79
FGGTGEPFGESNGNGVHVCNVKYK	3.02
FGGTGCPFGESNGNGVHVCNVKYK	1.87
FGGTGDPFGESNGNGVHVCNVKYK	3.29
FGGTGAPFGESNGNGVHVCNVKYK	2.1

Variants of: B2
Test: as above
Conditions: c terminus: a fixed tail appended

Variant	protein stability index
FLPGSDMMTLLMKKDTLTEEETQF	3.21
FLPGPDMMTLLMKKDTLTEEETQF	2.94
FLPGGDMMTLLMKKDYLTEEETQF	2.24
FLPGGDMMTLLMKKDKLTEEETQF	2.31
FLPGGDMMTLLMKKDNLTEEETQF	2.51
FLPGGDMMTLLMKKDQLTEEETQF	2.17
FLPGGDMMTLLMKKDRLTEEETQF	2.11
FLPGGDMMTLLMKKPTLTEEETQF	1.83
FLPGGDMMTLLMKKQTLTEEETQF	1.66
FLPGGDMMTLLMKKWTLTEEETQF	1.62
FLPGGDMMTLLMKKKTLTEEETQF	1.66
FLPGGDMMTLLMKKGTLTEEETQF	2.05
FLPGGDMMTFLMKKDTLTEEETQF	2.75
FLPGGDMMTCLMKKDTLTEEETQF	3.45
FLPGGDMMTSLMKKDTLTEEETQF	4.07
FLPGGDMMTILMKKDTLTEEETQF	2.64
FLPGGDMMTLLMKHDTLTEEETQF	2.38
FLPGGDMMTLLMKPDTLTEEETQF	2.46
FLPGGDMMTLLMKFDTLTEEETQF	2.39
FLPGGDMMTLLMKQDTLTEEETQF	2.18
FLPGGDMMVLLMKKDTLTEEETQF	1.81
FLPGGDMMNLLMKKDTLTEEETQF	3.01
FLPGGDMMGLLMKKDTLTEEETQF	2.71

Variant	protein stability index
FLPGGDMMDLLMKKDTLTEEETQF	4.35
FLPGGKMMTLLMKKDTLTEEETQF	1.98
FLPGGDMMTLLMKKDTLTEEETIF	2.12
FLPGGDMMTLLMKKDTLTEEPTQF	1.65
FLPGGDMMTLLMKKDTLTEEMTQF	1.98
FLPGGDMMTLLMKKDTLTEEGTQF	2.89
FLPGGDMMTLLMKKDTLTEENTQF	1.84
FLPGGDMMTLLMKKDTLTEEECQF	2.05
FLPGGDMMTLLMKKDTLTEEEDQF	2.12
FLPGGDMMTLLMKKDTLTEEEKQF	2.18
FLPGGDMMTLLMKKDTLTEEENQF	2.31
FLPGGDMMTLLMQKDTLTEEETQF	2.42
FLPGGDMMTLLMHKDTLTEEETQF	2.37
FLPGGDMMTLLMYKDTLTEEETQF	2.02
FLPGGDMMTLLMCKDTLTEEETQF	1.67
FLPGGDMMTLLMLKDTLTEEETQF	2.05
FLPGGDMMTLLMEKDTLTEEETQF	3.03
FLPGGDMMTLLMIKDTLTEEETQF	1.87
FLPGGDMMTLLMRKDTLTEEETQF	2.21
FLPGGDMMTLLMAKDTLTEEETQF	2.21
FLPGGDMMTLLMKKDTMTEEETQF	2.53
FLPGGDMMTLLMKKDTPTEEETQF	2.46
FLPGGDMMTLLMKKDTATEEETQF	2.95

Variant	protein stability index
FLPGGDMMTLLMKKDTFTEEETQF	1.96
FLPIGDMMTLLMKKDTLTEEETQF	2.35
FLPNGDMMTLLMKKDTLTEEETQF	2.76
FLPSGDMMTLLMKKDTLTEEETQF	2.61
FLPHGDMMTLLMKKDTLTEEETQF	3.29
FLPFGDMMTLLMKKDTLTEEETQF	2.41
FLPGGDMITLLMKKDTLTEEETQF	2.22
FLPGGDMRTLLMKKDTLTEEETQF	3.36
FLPGGDMHTLLMKKDTLTEEETQF	3.95
FLWGGDMMTLLMKKDTLTEEETQF	2.55
FLEGGDMMTLLMKKDTLTEEETQF	2.32
FLVGGDMMTLLMKKDTLTEEETQF	2.08
FLSGGDMMTLLMKKDTLTEEETQF	1.4
FLAGGDMMTLLMKKDTLTEEETQF	1.66
PLPGGDMMTLLMKKDTLTEEETQF	4.76
DLPGGDMMTLLMKKDTLTEEETQF	5.25
RLPGGDMMTLLMKKDTLTEEETQF	4.39
FLPGGDMMTLLMKKDTLDEEETQF	2.29
FLPGGDMMTLLMKKDTLFEEETQF	1.73
FLPGGDMMTLLMKKDTLAEEETQF	2.1
FLPGGDMMTLLMKKDTLIEEETQF	1.58
FLPGGDMMTLAMKKDTLTEEETQF	3.29
FLPGGDMMTLDMKKDTLTEEETQF	4.19

Variant	protein stability index
FLPGGDMMTLMMKKDTLTEEETQF	2.56
FLPGGDMMTLLRKKDTLTEEETQF	3.48
FLPGGDMMTLLCKKDTLTEEETQF	3.16
FLPGGDAMTLLMKKDTLTEEETQF	4.11
FLPGGDSMTLLMKKDTLTEEETQF	3.9
FLPGGDIMTLLMKKDTLTEEETQF	2.08
FLPGGDKMTLLMKKDTLTEEETQF	3.55
FLPGGDDMTLLMKKDTLTEEETQF	4.85
FLPGGDMMTLLMKKDTLTETETQF	1.86
FLPGGDMMTLLMKKDTLTEFETQF	1.97
FLPGGDMMTLLMKKDTLTEWETQF	1.66
FLPGGDMMTLLMKKDTLTEMETQF	1.89
FLPGGDMMTLLMKKDTLTEIETQF	1.4
FLPGGDMMTLLMKKDTLTERETQF	1.95
FLPGGDMMTLLMKKDTLTREETQF	1.78
FLPGGDMMTLLMKKDTLTAEETQF	2.13
FLPGGDMMTLLMKKDTLTGEETQF	2.35
FLPGGDMMTLLMKKDTLTTEETQF	1.51
FGPGGDMMTLLMKKDTLTEEETQF	2.23
FDPGGDMMTLLMKKDTLTEEETQF	4.38
